Test results from paper PMC10461807 (Frontiers in Immunology, 2023).
Substitutions are numbered along the chain they refer to.

B1: anti-CD30 mAb 8D10 (antibody, V domains shown)
VH: QVQLQESGTELVKPGASVKLSCKASGYTFTSYWMHWMKQRPGQGLEWIGNINPSNGGTNYNEKFKNKATLTVDKSSSTAYMQLSSLTSEDSAVYYCARRDYYYGSSYGFDVWGTGTTVTVSS
VL: DIVMTQSPASQSASLGESVTITCLASQTIGTWLAWYQQKPGKSPQFLIYAATSLADGVPSRFSGSGSGTKFSFKISSLQAEDFVSYYCQQLYSTPFTFGGGTKLEIK
notes: IgG2a constant part; kappa light chain; source: mouse hybridoma supernatant (serum-free medium), purified on rProtein A GraviTrap column
B2: anti-CD30 mAb 10C2 (antibody, V domains shown)
VH: QVQLEQSGPVLVKPGASVKMSCKASGYTFTDYYMNWVKQSHGKSLEWIGVINPYNGGTSYNQKFKGKATLTVDKSSSTACMELNCLTSEDSAVYYCTLGAYWGQGTSVTVSS
VL: not shown
notes: as for B1
B3: anti-CD30 mAb 8D10 (antibody, V domains shown)
VH: B1 VH
VL: B1 VL
notes: also called clone 8D10; source: mouse hybridoma (custom generated by Genscript), serum-free supernatant, purified (rProtein A GraviTrap)
B4: anti-CD30 mAb 12B1 (antibody, V domains shown)
VH: EVKLEESGTELVKPGASVKLSCKASGYTFTSYWMHWVKQRPGQGLEWIGNINPTNGGTNYNEKFKSKATLTVDKSSRTAYMQLSSLTSGDSAVYYCARRDFITTSGFAYWGQGTLVTVSA
VL: DIVMTQTTASLSTSVGETVTITCRASGNLHSYLTWYQQKQGKSPQLLVYNAKTLADGVPSRFSGSGSGTQYSLKIDSLQPEDFGSYYCQHFWTTPFTFGSGTKLEIK
notes: also called clone 12B1; source: mouse hybridoma (custom generated by Genscript), serum-free supernatant, purified (rProtein A GraviTrap)
B5: anti-CD30 mAb 13H1 (antibody, V domains shown)
VH: QVQLQQSGTELVKPGASVKLSCKASGHTFTSYWMHWVKQRPGQGLEWIGNINPSNGGTNYNEKFKSKATLTVDKSSSTAYMQLSSLTSEDSAVYYCARRGYYGSSSYWSFDVWGTGTTVTVSS
VL: DIVMTQTPKSMSMSVGERVTLSCKASENVGTYVSWYQQKPEQSPKVLIYGASNRFTGVPDRFTGSGSATDFTLTISSVQTEDLADYHCGQSYSYPLTFGAGTKLELK
notes: also called clone 13H1; source: mouse hybridoma (custom generated by Genscript), serum-free supernatant, purified (rProtein A GraviTrap)
B6: anti-CD30 mAb 15B8 (antibody, V domains shown)
VH: QVQLEQSGTELVKPGASVKLSCKASGYTFTSYWMHWVKQRPGQGLEWIGNINPSNGGTNYNEKFKSKATLTVDKSSSTAYMQLSSLTSEDSAIYYCARRNNYYASSPFAYWGQGTLVSVSA
VL: B4 VL with T8P, T13A, L29I, S31N, T34A, D76N, T93S
notes: also called clone 15B8; source: mouse hybridoma (custom generated by Genscript), serum-free supernatant, purified (rProtein A GraviTrap)
B7: anti-CD30 mAb 10C2 (antibody, V domains shown)
VH: B2 VH
VL: not shown
notes: also called clone 10C2; source: mouse hybridoma (custom generated by Genscript), serum-free supernatant, purified (rProtein A GraviTrap)

Target: T1, Recombinant huCD30 (Homo sapiens, UniProt P28908)
T1 construct: human CD30 (TNFRSF8), recombinant protein from R&D; also called rhCD30; huCD30 protein; source: bought: R&D
Test: SPR; mAbs (5 ng/ul) immobilized on a Protein G sensor chip at about 200 RU; rhCD30 as analyte (0-2500 nM for the 8D10 and 10C2 flow cells), 2 min at 40 ul/min, 3 min dissociation; 25°C; 10 mM Hepes pH 7.4, 150 mM NaCl, 0.005% P20; BIAcore 3000; 1:1 Langmuir fit
Conditions: both partners purified

T1 sequence (P28908 19-385): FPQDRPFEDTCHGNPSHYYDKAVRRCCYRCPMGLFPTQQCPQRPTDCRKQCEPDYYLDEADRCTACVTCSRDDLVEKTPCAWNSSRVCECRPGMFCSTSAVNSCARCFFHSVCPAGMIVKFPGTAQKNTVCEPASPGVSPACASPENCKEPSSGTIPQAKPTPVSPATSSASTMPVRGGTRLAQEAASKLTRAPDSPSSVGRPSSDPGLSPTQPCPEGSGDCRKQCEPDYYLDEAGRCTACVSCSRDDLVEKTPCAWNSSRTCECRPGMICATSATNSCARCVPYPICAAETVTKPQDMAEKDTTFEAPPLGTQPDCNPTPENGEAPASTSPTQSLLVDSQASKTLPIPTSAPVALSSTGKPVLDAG

| Ka [M⁻¹] | Kd [nM] | koff [s⁻¹] | kon [M⁻¹ s⁻¹] | Binder |
| --- | --- | --- | --- | --- |
| 878000 | 1140 | 0.00523 | 4530 | B1 |
| 579000 | 1760 | 0.0101 | 5880 | B2 |

Target: T2, recombinant huCD30 (R&D) (Homo sapiens, UniProt P28908)
T2 construct: recombinant human CD30 from R&D; also called rhCD30; huCD30 protein; source: bought: R&D
Test: SPR; BIAcore 3000, 25°C; recombinant huCD30 amine-coupled on a CM5 chip; mAbs as analyte in serial 1:2 dilutions from 20 nM; 10 mM Hepes pH 7.4, 150 mM NaCl, 0.005% P20, 0.1% BSA; 1:1 Langmuir fit
Conditions: both partners purified

T2 sequence (P28908 19-385): as above

| Ka [M⁻¹] | Kd [nM] | koff [s⁻¹] | kon [M⁻¹ s⁻¹] | Binder |
| --- | --- | --- | --- | --- |
| 1.69e+10 | 0.0592 | 6e-06 | 101000 | B3 |
| 5.02e+09 | 0.199 | 1.22e-05 | 61300 | B4 |
| 6.7e+09 | 0.149 | 0.000106 | 708000 | B5 |
| 1.02e+09 | 0.978 | 0.000493 | 504000 | B6 |
| 1.65e+09 | 0.607 | 0.000186 | 307000 | B7 |
